Biological target: arp3_bovin ACTR3 (UniProt P61157)

Row | Substance | effect of a mutation on the interaction
1 | Src substrate cortactin (Mus musculus), Q60598 D20G;D21A | disrupting interaction
2 | Src substrate cortactin (Mus musculus), Q60598 W22A | disrupting interaction

— IntAct's records for PubMed 11231575
